Experimental data taken from patent US11447754B2, “In vitro methods of chemical conversion using non-stereospecific glutathione lyases” (WISCONSIN ALUMNI RESEARCH FOUNDATION, priority 2017, dated 2022).
Residue numbers refer to the chain shown, from its start. Names and notes keep the numbering of the source.

Experiments:
[1] = substrate: COc1cc(C(=O)[C@@H](CO)SC[C@H](NC(=O)CC[C@H](N)C(=O)O)C(=O)NCC(=O)O)ccc1O; assay: Kinetics of GS-HPV cleavage into HPV by ecYfcG; format: biochemical, Escherichia coli DH5α; conditions: other: GS-HPV into HPV, 195 nM enzyme, GSH, pH 8.5, 25° C.
Description: (§1) Enzyme purifications. Genes Saro_2595, E. coli yghU, E. coli yfcG, and SLG_04120 from Sphingobium sp. SYK-6 (codon-optimized for expression in E. coli) were individually cloned into plasmid pVP302K (Gall and Ralph et al. 2014) so that transcripts from the plasmids would be translated into proteins containing a His8-tag connected to the N-terminus via a tobacco etch virus (TEV) protease recognition site. Recombinant proteins were expressed in E. coli B834 (Wood 1966, Doherty et al. 1995) containing plasmid pRARE2 (Novagen, Madison, Wis.) grown for ˜24 h at 27° C. in ZYM-5052 Autoinduction Medium (Studier 2005) containing kanamycin and chloramphenicol. Recombinant proteins were purified essentially as described previously (Gall and Kim et al. 2014); see below for modifications to the procedure. After removal of His8-tags using TEV protease, recombinant proteins retained a Ser-Ala-Ile-Ala-Gly-peptide on their N-termini, derived from the linker between the protein and the TEV protease recognition site. Recombinant LigE and LigF1 from N. aromaticivorans were purified as previously described (Gall and Ralph et al. 2014).
(§2) Kinetics analysis of GS-HPV cleavage. The Reaction Buffer (RB) consisted of 25 mM Tris-HCl (pH 8.5) and 25 mM NaCl. The β(R)- and β(S)-stereoisomers of GS-HPV were separately generated by incubating racemic MPHPV (0.46 mM) in RB with 5 mM reduced glutathione (GSH) and either 38 μg/mL LigF1 or 36 μg/mL LigE, respectively, for several h. This sample, containing a single GS-HPV stereoisomer, guaiacol, and the unreacted MPHPV stereoisomer, was diluted with RB to achieve the desired concentration of GS-HPV for the time course reaction (0.005, 0.011, 0.022, 0.096, or 0.193 mM). An additional 5 mM GSH (dissolved in RB) was added prior to initiation of each time course. At time zero, 100 μL of the indicated enzyme sample (resuspended in RB) was combined with 1800 μL of the diluted GS-HPV reaction mixture to achieve final concentrations of 8 nM NaGSTNu, 195 nM ecYghU, 195 nM ecYfcG, or 47 nM (for β(R)-GS-HPV reactions) or 18 nM (for β(S)-GS-HPV reactions) SYK6GSTNu. Assays were performed at 25° C., and at specified time points, 300 μL of the reaction was removed and combined with 100 μL 1 M HCl (Acros Organics; Geel, Belgium) to stop the reaction before HPLC analysis to quantify HPV formed.
(§3) HPLC analysis. After extracellular aromatics were identified using LC-MS, routine analysis and quantification of aromatics were performed using an Ultra AQ C18 5 μm column (Restek, Bellefonte, Pa.) attached to a System Gold HPLC (Beckman Coulter, Brea, Calif.) with running buffers and chromatography conditions described in FIG. 14. The eluent was analyzed for light absorbance between 191 and 600 nm, and absorbances at 280 nm were used for quantification of aromatic metabolites by comparing peak areas to those of standards (retention times of measured metabolites are shown in FIG. 15).

[2] = substrate: COc1cc(C(=O)[C@H](CO)SC[C@H](NC(=O)CC[C@H](N)C(=O)O)C(=O)NCC(=O)O)ccc1O; assay: Kinetics of GS-HPV cleavage into HPV by ecYfcG; format: biochemical, Escherichia coli DH5α; conditions: other: GS-HPV into HPV, 195 nM enzyme, GSH, pH 8.5, 25° C.
Description: as §1, §2, §3

[3] = Kinetics of GS-HPV cleavage, comparisons between enzymes over both stereoisomers; format: biochemical
Protocol: as §2, §3

[4] = substrate: COc1cc(C(=O)[C@@H](CO)SC[C@H](NC(=O)CC[C@H](N)C(=O)O)C(=O)NCC(=O)O)ccc1O; assay: Kinetics of GS-HPV cleavage into HPV by NaGSTNu; format: biochemical, Novosphingobium aromaticivorans DSM 12444; conditions: other: GS-HPV into HPV, 8 nM enzyme, GSH, pH 8.5, 25° C.
Description: as §1, §2, §3

[5] = substrate: COc1cc(C(=O)[C@H](CO)SC[C@H](NC(=O)CC[C@H](N)C(=O)O)C(=O)NCC(=O)O)ccc1O; assay: Kinetics of GS-HPV cleavage into HPV by NaGSTNu; format: biochemical, Novosphingobium aromaticivorans DSM 12444; conditions: other: GS-HPV into HPV, 8 nM enzyme, GSH, pH 8.5, 25° C.
Description: as §1, §2, §3

[6] = substrate: COc1cc(C(=O)[C@@H](CO)SC[C@H](NC(=O)CC[C@H](N)C(=O)O)C(=O)NCC(=O)O)ccc1O; assay: Kinetics of GS-HPV cleavage into HPV by ecYghU; format: biochemical, Escherichia coli DH5α; conditions: other: GS-HPV into HPV, 195 nM enzyme, GSH, pH 8.5, 25° C.
Description: as §1, §2, §3

[7] = substrate: COc1cc(C(=O)[C@H](CO)SC[C@H](NC(=O)CC[C@H](N)C(=O)O)C(=O)NCC(=O)O)ccc1O; assay: Kinetics of GS-HPV cleavage into HPV by ecYghU; format: biochemical, Escherichia coli DH5α; conditions: other: GS-HPV into HPV, 195 nM enzyme, GSH, pH 8.5, 25° C.
Description: as §1, §2, §3

[8] = substrate: COc1cc(C(=O)[C@@H](CO)Oc2ccccc2OC)ccc1O; assay: Kinetics of the enzymatic cleavage of β(R)-MPHPV by BaeA (2:S14A/3:S15A); format: biochemical, Novosphingobium aromaticivorans; conditions: other: β(R)-MPHPV into GS-HPV, 24 nM dimeric enzyme, 5 mM GSH, pH 8.0, 25° C.
Protocol: To generate mutant […], pVP302K/2873-H2872(S14A) was amplified by kinase phosphorylated primers “Saro2873-S15A_R” and “Saro2873-S15A_F”. The linear fragment was circularized using T4 DNA ligase to generate plasmid pVP302K/2873(S15A)-H2872(S14A).
(§4) Expression and purification of recombinant enzymes. Recombinant proteins were expressed using the plasmids described above in E. coli B834 containing plasmid pRARE2 (Novagen) grown for ˜25 hours at 25° C. in ZYM-5052 Autoinduction Medium containing kanamycin and chloramphenicol. Recombinant proteins were purified using a Ni^2+-NTA column as described in Example 1 above, except using gravity-flow columns instead of an FPLC system. After removal of His8-tags using Tev protease, recombinant proteins retained a Ser-Ala-Ile-Ala-Gly-peptide on their N-termini, derived from the linker between the protein and the Tev protease recognition site. Recombinant LigF1 was purified as previously described (Gall and Ralph et al. 2014).
Kinetics of the enzymatic cleavage of β(R)-MPHPV. Various concentrations of racemic MPHPV (equal amounts of the β(S)- and β(R)-stereoisomers) were combined with 5 mM GSH in RB. At time zero, 100 μL of a given enzyme in RB+5 mM GSH was combined with 1000 μL of the racemic MPHPV/GSH sample at 25° C. (both samples were equilibrated to 25° C. before mixing). Final concentrations of β(R)-MPHPV in each reaction were 0.0045, 0.010, 0.017, 0.068, or 0.13 mM. […] At specified time points, 200 μL of a reaction was removed and combined with 40 μL of 1 M HCl (Acros Organics) to stop the reaction before HPLC analysis to quantify GS-HPV formed. […]
(§5) HPLC analysis. Analysis and quantification of aromatic compounds were performed using an Ultra AQ C18 5 μm column (Restek) attached to a System Gold HPLC (Beckman Coulter) with running buffers and methods described in Example 1. The eluent was analyzed for light absorbance between 191 and 600 nm, and absorbances at 280 nm were used for quantification of aromatic metabolites by comparing peak areas to those of standards.

[9] = substrate: COc1cc(C(=O)[C@@H](CO)Oc2ccccc2OC)ccc1O; assay: Kinetics of the enzymatic cleavage of β(R)-MPHPV by BaeA (3:N14A); format: biochemical, Novosphingobium aromaticivorans; conditions: other: β(R)-MPHPV into GS-HPV, 98 nM dimeric enzyme, 5 mM GSH, pH 8.0, 25° C.
Description: To generate mutant 2:S14A, pVP302K/2873-H2872 was amplified by kinase phosphorylated primers “Saro2872-S14A_R” and “Saro2872-S14A_F”. To generate mutant 3:S15A, pVP302K/H2873-2872 was amplified by kinase phosphorylated primers “Saro2873-S15A_R” and “Saro2873-S15A_F”. To generate mutant 3:N14A, pVP302K/2873-H2872 was amplified by kinase phosphorylated primers “Saro2873-S15A_R” and “Saro2873-N14A_F”. These linear fragments were separately circularized using T4 DNA ligase to generate plasmids pVP302K/2873-H2872(S14A), pVP302K/H2873(S15A)-2872, and pVP302K/2873(N14A)-H2872, respectively.
as §4
Kinetics of the enzymatic cleavage of β(R)-MPHPV. Various concentrations of racemic MPHPV (equal amounts of the β(S)- and β(R)-stereoisomers) were combined with 5 mM GSH in RB. […] At specified time points, 200 μL of a reaction was removed and combined with 40 μL of 1 M HCl (Acros Organics) to stop the reaction before HPLC analysis to quantify GS-HPV formed. […]
as §5

B1: Escherichia coli ecYfcG, Nu-class glutathione-S-transferase, wild type, SEQ ID NO:30 (Escherichia coli K-12) (protein)
chain: MIDLYFAPTPNGHKITLFLEEAELDYRLIKVDLGKGGQFRPEFLRISPNNKIPAIVDHSPADGGEPLSLFESGAILLYLAEKTGLFLSHETRERAATLQWLFWQVGGLGPMLGQNHHFNHAAPQTIPYAIERYQVETQRLYHVLNKRLENSPWLGGENYSIADIACWPWVNAWTRQRIDLAMYPAVKNWHERIRSRPATGQALLKAQLGDERSDS
notes: E. coli B834
- Km [1]: 160 µM
- kcat [1]: 0.04 s⁻¹
- kcat/Km [1]: 200 M⁻¹ s⁻¹
- Km [2]: 130 µM
- kcat [2]: 0.017 s⁻¹
- kcat/Km [2]: 140 M⁻¹ s⁻¹

B2: ecYfcG: Nu-class GST from Escherichia coli DH5a, SEQ ID NO:30 (protein, listed as Escherichia coli)
chain: B1 chain
- KM, fold higher than those of ecYghU [3]: ~10 fold
- kcat, fold lower than those of ecYghU [3]: ~10 fold
- kcat/KM with GS-HPV, fold lower than for ecYghU [3]: ~100 fold
- kcat/KM with GS-HPV, fold lower than those of NaGSTNu [3]: ~10^4 fold

B3: Novosphingobium aromaticivorans DSM 12444 NaGSTNu (Saro_2595), Nu-class glutathione-S-transferase, wild type, SEQ ID NO:18; recombinant, residues 21-313 of SEQ … (protein)
chain: MSSEYVPPKVWKWDKANGGAFASVNRPVAGPTSERELPVGKHPFQVYSLGTPNGQKATIMLEELLQLGFSEAEYDAWLIKIFEGDQFTSGFVDINPNSKIPAMVDRSGPEPFRVFESGAILMHLAEKFGVFLPTSGPARAECLSWLFWQVGSAPFIGGGFGHFYNYAPIKIEYAIDRYAMETKRLFDVANRRLAESRYLAGDEYTIADLATYTWFGNIYRGEAYGEAATFLSMHEYEHVGRWVGEIDARPGVLRGRLVNSSKGLAERHDASDFDALPPESLQAIVKGF
notes: E. coli B834
- Km [4]: 40 µM
- kcat [4]: 80 s⁻¹
- kcat/Km [4]: 1.9e+06 M⁻¹ s⁻¹
- Km [5]: 8 µM
- kcat [5]: 57 s⁻¹
- kcat/Km [5]: 8e+06 M⁻¹ s⁻¹

B4: Escherichia coli ecYghU, Nu-class glutathione-S-transferase, wild type, SEQ ID NO:26; recombinant, residues 21-313 of SEQ ID NO:28 (Escherichia coli K-12) (protein)
chain: MTDNTYQPAKVWTWDKSAGGAFANINRPVSGPTHEKTLPVGKHPLQLYSLGTPNGQKVTIMLEELLALGVTGAEYDAWLIRIGDGDQFSSGFVEVNPNSKIPALRDHTHNPPIRVFESGSILLYLAEKFGYFLPQDLAKRTETMNWLFWLQGAAPFLGGGFGHFYHYAPVKIEYAINRFTMEAKRLLDVLDKQLAQHKFVAGDEYTIADMAIWPWFGNVVLGGVYDAAEFLDAGSYKHVQRWAKEVGERPAVKRGRIVNRTNGPLNEQLHERHDASDFETNTEDKRQG
notes: E. coli B834
- kcat/KM with GS-HPV, fold lower than those of NaGSTNu [3]: ~100 fold
- Km [6]: 28 µM
- kcat [6]: 0.43 s⁻¹
- kcat/Km [6]: 16000 M⁻¹ s⁻¹
- Km [7]: 12 µM
- kcat [7]: 0.29 s⁻¹
- kcat/Km [7]: 24000 M⁻¹ s⁻¹

B5: Novosphingobium aromaticivorans BaeA (Saro_2872/Saro_2873 heterodimer, SEQ ID NO:40/SEQ ID NO:42) variant 2:S14A/3:S15A (Ser14 of Saro_2872 and Ser15 of … (protein)
chain 1: MSALLYHGEPNGAALTVLAALAETGLDIECRRIDLLAGERHSLPGIVDPVALDLSIEGEGPVLVIDGEAMTESVFLAQYLDEAAGGVGLQPTDAYARWEMMMWCRQITERLSPAAALLGNLATSQSAIAAIPAEDFAILAARIVSDDLRERWQALNDDAVNAAQVADSETKVAAAVDRCEKQLGDGREWLMGTFSIADLVTYSWLAGMEPLRPAAFADAPLVKAWLARTAARPCVQAALARATISEPLRAWAPGPEINRWG
chain 2: MDEVSLYHWEPNANAGKPMLALMEKGVPFSSHYIDMLQFDQHKPEYLAINPQGTIPAMTHNGQVLTESTAIMEYVNDRFDGPDLMPADAQDRWRVRWWMKFMDQWLGPSFSMIGWSVFVGPMVRQRDPAELAAAIDRIPLPERRTAWRKAINGDFSESEMAESRRRVGLGIAKLEEELGKRPYVGSNQYSLADINIFNSTYSLPISQPDLAGKDRTPNIMRWLKRVYTREAVKKTWAMGKTDLAHRYGLIMAEIEG
notes: His8 tag removed by TEV
- Km [8]: 120 ± 30 µM
- kcat [8]: 2.8 ± 0.5 s⁻¹
- kcat/Km [8]: 23000 ± 8000 M⁻¹ s⁻¹

B6: Novosphingobium aromaticivorans BaeA (Saro_2872/Saro_2873 heterodimer, SEQ ID NO:40/SEQ ID NO:42) variant 3:N14A (Asn14 of Saro_2873 to Ala) (Novosphingobium … (protein)
chain 1: B5 chain 1 with A14S
chain 2: B5 chain 2 with N14A, A15S
notes: His8 tag on Saro_2872 removed by TEV
- Km [9]: 250 ± 60 µM
- kcat [9]: 0.14 ± 0.02 s⁻¹
- kcat/Km [9]: 500 ± 200 M⁻¹ s⁻¹
